# Substrate: OC(CS)C(O)CS
# Experiment: oxygen consumption, Clark-type electrode
# Assay type: biochemical, Saccharomyces cerevisiae
# Settings: electron donor, co-substrate O2 (air, ~250 μM), 1 μM Erv1, SOD1 10 units/mL, 50 mM Tris/HCl, 150 mM NaCl, 1 mM EDTA, pH 7.4, 25 °C
protein,measurement,value
"Erv1 (yeast Erv1) (Saccharomyces cerevisiae S288C) (protein, WT, ERV1 gene in pET-24a(+), E. coli Rosetta-gami 2, Ni-NTA then size exclusion) MKAIDKMTDNPPQEGLSGRKIIYDEDGKPCRSCNTLLDFQYVTGKISNGLKNLSSNGKLAGTGALTGEASELMPGSRTYRKVDPPDVEQLGRSSWTLLHSVAASYPAQPTDQQKGEMKQFLNIFSHIYPCNWCAKDFEKYIRENAPQVESREELGRWMCEAHNKVNKKLRKPKFDCNFWEKRWKDGWDE",Km,1500 ± 100 µM
same,kcat,1.28 ± 0.03 s⁻¹

# Reference: paper PMC7155059, “Kinetic characterisation of Erv1, a key component for protein import and folding in yeast mitochondria” (The Febs Journal, 2019)
